According to US6512102B1, “Compositions and methods of diagnosis and treatment using casein kinase I” (Chiron Corporation, priority 1998, dated 2003):
Numbering of substitutions follows the chain as printed. Read-outs that look alike come from different tables or passages of the source.

Tests used:
[1] = system: Arm (β-catenin); assay: Arm (β-catenin) protein level in stable Drosophila Schneider cells, Western blot; assay type: cell-based; details: cells expressing CKIε, copper induction
From the text: Drosophila Schneider cell lines were derived that stably express CKIε in the presence or absence of Drosophila Sgg (GSK3) protein. CKIε and sgg (GSK3) gene expression were controlled by a metallothionein promoter which is induced by copper. […] In the cells expressing CKIε and Sgg (GSK3), Arm (β-catenin) protein level is reduced.
CKIε was PCR-cloned into a vector pRmHa-3 containing a copper-inducible promoter (metallothionine). It was co-transfected with pMKK3 containing the neo-gene (G418-resistant gene) into Drosophila Schneider cells. G418 was used for selection of a stable cell line. In addition, stable cell lines containing combinations of CKIε+wt sgg, CKIε+Actsgg, CKIKD, CKIKD+DN Sgg were made. Actsgg is a mutant containing a mutation of Ser9 to Ala. To detect stabilized Arm, cells were plated 16 hours before the copper induction and lysed three hours after the copper induction. Western blots were performed with anti-Arm mAb 7A12.

[2] = system: Lef-1 dependent transcription; assay: Lef-1 enhancer luciferase reporter assay in Cos cells; assay type: cell-based; details: for luciferase activity induced: cotransfected with Lef-1, Cos cells; for Wnt signal transduction (Lef-luciferase): variant co-transfected with Wnt-1; for signal transduced by dominant negative GSK3 (DNGSK3): variant co-transfected with dominant negative GSK3 and Lef-1; for luciferase activity transduced by Dvl-1: variant with Dvl-1
Description: (§1) Combinations of Wnt-1, CKIε, CKI kinase dead variant (lys→arg 38) and Lef-1 were transfected into Cos cells with a luciferase gene driven by multiple copies of Lef enhancer elements. As an internal control of transfection efficiency, the β-galactosidase gene driven by the SV40 promoter was co-transfected in all samples. 24 hours after transfection, cells were lysed and the lysate was tested for luciferase activity. The luciferase activity was normalized with respect to β-galactosidase activity. […] Dorsoanterior index (DAI) grade numbers were assigned to the phenotypes of the embryos. A grade 5 embryo is normal; a grade 3 embryo is cyclopic (one eye); a grade 1 embryo has a tail fin and somites but no head (acephalic); and a grade 0 embryo has no dorsoanterior structures (Kao et al., 1988).
The effect of CKI on Lef-1 dependent transcription in Cos mammalian cells was examined. A luciferase reporter gene driven by multiple copies of the Lef-I enhancer sequence was used. When only Wnt-I or lef-I or CKIε was transfected with the reporter construct, luciferase activity was induced only 2 to 3 fold (FIG. 1A). When Lef-1 was cotransfected with either Wnt-1 or CKIε, luciferase activity was induced 30 or 12 fold respectively.
Luciferase reporter plasmid contains multiple Lef-I enhancer sites upstream of the fos basal promoter. Various DNA plasmids encoding Wnt-1, CKIε , Dvl-1, GSK3 etc. were co-transfected with a luciferase reporter plasmid and a SV40 β-galactosidase plasmid into 24-well Cos cell culture. For each well, 0.5 μg total DNA was in a ratio of 0.08 μg:016 μg:0.02 μg for signaling molecules:luciferase: β-gal. SV40 β-gal construct was used as an internal transfection control, since β-gal activity is independent of the Wnt-1 signaling molecules. Transfection was done using LT1 (5 μl/μg DNA) (Panvera Co. # MIR23 10). Each sample was transfected in triplex repeats to obtain a statistical value. After 24 hours, cells were washed once with PBS and lysed in 50 μl/well lysis buffer supplied with the luciferase assay kit (Promega cat# EI500). 10 μl of each sample was aliquoted into two sets of tubes, one set for the luciferase assay and another for β-gal chemiluminescent reporter assay (Galacto-Light, TROPIX Inc. #BL100G). The result of the luciferase assay was divided by the corresponding β-gal activity, and then averaged.

[3] = system: GSK3; assay: In vitro kinase assay on GSK3; assay type: biochemical
From the text: B) Luciferase activity transduced by Dvl-1 was inhibited by CKI lys→arg 38. […] It was immunoprecipitated using anti-HA antibody and mixed with Immunoprecipitated GSK3.

[4] = system: Wnt pathway; assay: Wnt pathway activation by CKI isoforms (ectopic axis in Xenopus embryos and Lef-1 reporter gene assay); assay type: cell-based
Description: There are seven mammalian CKI isoforms (α, β, γ1−3, δ and ε). All these isoforms contain a conserved serine-threonine kinase domain and various amino terminal and carboxyl terminal domains. CKIε and CKIδ the most closely related isoforms have a longer carboxy terminus compared to the other isoforms. […] The activation of the Wnt pathway was analyzed by induction of ectopic axis in Xenopus embryos and the Lef-1 reporter gene assay.
Lef-1 reporter assays were carried out as done as described in Sakanaka et al. (1998) Proc Natl Acad Sci USA. 95:3020-3. For example, 293 cells were seeded at 2×10^5 cells/well in 12-well culture plates. Cells were transfected with 0.2 μg of the luciferase reporter gene, 0.02 μg of Lef-1, 0.03 μg of pTK-β-gal as an internal control, the indicated amount of CKIε, Axin or Wnt-1 cDNA, and pcDNA3.1 vector to a total amount of 0.4 μg of plasmids. Transfection was performed by Lipofectamine (Lifetechnologies Inc. #18324012). Luciferase and β-gal activities were measured 48 h after transfection. Relative light units (RLU) were measured with a luminometer (Analytical Luminescence Laboratory, Monolight 2010).

[5] = system: ventralized Xenopus embryo; assay: Rescue of dorsal structure of ventralized Xenopus embryos by injected RNA; assay type: in vivo; details: RNA injected into ventralized embryos
Description: as §1
Furthermore, when the variant was co-transfected with CKIε into Cos cells, Lef-1-dependent luciferase activity was inhibited. […] Thus, the variant interferes with Wnt signaling, acting as a dominant negative.

[6] = system: casein; assay: Kinase activity of construct transfected into Cos cells, casein as substrate; assay type: biochemical; details: substrate casein protein
Description: It was transiently transfected into Cos cells and its activity was tested using substrate casein protein.

[7] = molecular target: T1, Axin (Homo sapiens, UniProt O15169); assay: Co-immunoprecipitation with Axin in 293 cells; assay type: binding; details: both molecules co-expressed in 293 cells
T1 construct: expressed in transfected cells; host or cells: 293 cells
Description: Interaction of CKI with Axin When Axin was expressed in 293 cells, endogenous CKIε was found in the Axin immune-complex.
Cells were washed with PBS and lysed in buffer (20 mM Tris.HCl, pH 7.5/1 mM EDTA/0. 1% Triton X-100/[…]/1 mM phenylmethylsulfonyl fluoride/10 μg/ml each of aprotinin and leupeptin). For immunoprecipitation, cell lysates were incubated with various antibodies for 4 hours at 4° C., then added Dynabeads M-450 Sheep anti-Mouse IgG (Dynal Inc. #110.01). Enhance chemiluminescence reagents (Amersham Pharmacia Biotech) were used for detection of the immunoblots.

[8] = system: Lef-1 reporter gene activity; assay: Lef-1 reporter gene assay in 293 cells after antisense transfection; assay type: cell-based; details: Wnt-1 expressed in 293 cells
Description: FIGS. 4A-C Lef-1 reporter gene activity induced by Wnt (A), Dv1-3 (B), or mutant β-catenin (C) is inhibited by CKIε antisense polynucleotides (CKI-a and CKI-b), but not by the reverse sequence control (RC). 293 cells were plated at a density of 1.5*10^5 cells per 12-well dish 16 hours prior to transfection 6 ul 0.5 mM cationic lipitoid and 2 ul 100 uM polynucleotide in 50 ul opti-MEM (Life Technologies) was mixed together and added dropwise to cells in 1 ml of fresh media. After 24 hours cells, cells were washed with opti-MEM and transfected with luciferase reporter plasmids (0.02 mg lef-1, 0.2 lef-1 reporter, 0.03 mg renilla luciferase) control using lipofectamine (Life Technologies). Cells were assayed for luciferase activity 48 hours after transfection of antisense polynucleotides.
One method for measuring activation of gene expression by the Wnt pathway is to use the Lef-1 reporter gene assay. Antisense polynucleotides were transfected into cells by using cationic peptoid reagents followed by transfection with Lef-1, Lef-1 reporter, and Wnt-1 plasmids using lipofectamine (Life Technologies). Lef-1 reporter gene activity was measured using the Dual-Luciferase Reporter Assay System (Promega) according to the manufacturers specifications. […]

T1 sequence (O15169 whole entry, species assumed): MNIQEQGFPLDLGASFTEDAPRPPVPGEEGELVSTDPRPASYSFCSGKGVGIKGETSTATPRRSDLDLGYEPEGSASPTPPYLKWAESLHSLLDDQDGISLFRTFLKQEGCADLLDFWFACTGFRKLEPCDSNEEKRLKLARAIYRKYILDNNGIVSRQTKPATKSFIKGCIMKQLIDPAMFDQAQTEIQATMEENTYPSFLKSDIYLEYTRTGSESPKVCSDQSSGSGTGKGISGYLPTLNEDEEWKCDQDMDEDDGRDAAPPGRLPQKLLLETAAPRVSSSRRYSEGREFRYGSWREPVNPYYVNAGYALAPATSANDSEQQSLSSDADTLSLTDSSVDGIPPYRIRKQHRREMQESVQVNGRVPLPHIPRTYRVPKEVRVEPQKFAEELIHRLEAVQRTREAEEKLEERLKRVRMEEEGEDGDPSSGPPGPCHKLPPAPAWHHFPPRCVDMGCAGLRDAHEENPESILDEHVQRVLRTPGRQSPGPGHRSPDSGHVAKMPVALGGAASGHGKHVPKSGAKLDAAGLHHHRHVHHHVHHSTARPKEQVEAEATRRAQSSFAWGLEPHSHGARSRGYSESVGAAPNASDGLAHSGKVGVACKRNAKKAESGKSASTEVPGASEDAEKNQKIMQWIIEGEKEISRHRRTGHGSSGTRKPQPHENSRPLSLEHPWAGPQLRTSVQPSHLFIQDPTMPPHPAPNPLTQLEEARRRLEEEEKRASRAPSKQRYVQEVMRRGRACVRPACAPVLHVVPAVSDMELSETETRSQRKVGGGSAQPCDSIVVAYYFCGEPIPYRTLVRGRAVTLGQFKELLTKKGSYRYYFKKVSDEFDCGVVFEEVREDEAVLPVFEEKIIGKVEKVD

B1: CKIε: mouse casein kinase I ε, SEQ ID NO:1, 416 amino acids, 98.9% identical to human CKIε; expressed from transfected cDNA (protein)
chain: MELRVGNKYRLGRKIGSGSFGDIYLGANIASGEEVAIKLECVKTKHPQLHIESKFYKMMQGGVGIPSIKWCGAEGDYNVMVMELLGPSLEDLFNFCSRKFSLKTVLLLADQMISRIEYIHSKNFIHRDVKPDNFLMGLGKKGNLVYIIDFGLAKKYRDARTHQHIPYRENKNLTGTARYASINTHLGIEQSRRDDLESLGYVLMYFNLGSLPWQGLKAATKRQKYERISEKKMSTPIEVLCKGYPSEFSTYLNFCRSLRFDDKPDYSYLRQLFRNLFHRQGFSYDYVFDWNMLKFGAARNPEDVDRERREHEREERMGQLRGSATRALPPGPPTGATANRLRSAAEPVASTPASRIQQTGNTSPRAISRADRERKVSMRLHRGAPANVSSSDLTGRQEVSRLAASQTSVPFDHLGK
modifications: HA tag; Mus Casein Kinase I epsilon
notes: expressed from transfected cDNA
[1]
  Arm (β-catenin) protein level: significantly higher than background
[2]; Wnt-I and CKI without lef-I
  induction of transcription: did not induce the transcription
[2]
  luciferase activity induced: 12 fold
[3]; in vitro
  phosphorylation of GSK3: phosphorylated purified GSK3 protein as well as immunoprecipitated GSK3 protein
[4]
  activation of the Wnt pathway: activate the Wnt pathway

B2: CKI lys→arg 38: kinase-inactive CKIε construct in which lysine 38 in the kinase domain was mutated to arginine (protein)
chain: B1 chain with K38R
modifications: Mus Casein Kinase I epsilon
[5]
  rescue of embryonic dorsal structure: failed to do so
[2]; variant co-transfected with CKIε
  Lef-1-dependent luciferase activity: inhibited
[2]
  Wnt signal transduction (Lef-luciferase): blocked the Wnt signal transduction in a dose-dependent manner
  signal transduced by dominant negative GSK3 (DNGSK3): did not inhibit the signal
  luciferase activity transduced by Dvl-1: inhibited
[2]; listed as CKIKD
  Wnt signal transduction (Lef-luciferase): inhibits Wnt signaling
[2]; listed as variant
  signal transduced by dominant negative GSK3 (DNGSK3): did not reduce the signal
  luciferase activity transduced by Dvl-1: inhibited the effect of Dv1-1 on luciferase activity
[6]
  kinase activity: no detectable kinase activity

B3: CKIεΔ: truncated CKIε mutant where the C-terminus was deleted (protein)
chain: MELRVGNKYRLGRKIGSGSFGDIYLGANIASGEEVAIKLECVKTKHPQLHIESKFYKMMQGGVGIPSIKWCGAEGDYNVMVMELLGPSLEDLFNFCSRKFSLKTVLLLADQMISRIEYIHSKNFIHRDVKPDNFLMGLGKKGNLVYIIDFGLAKKYRDARTHQHIPYRENKNLTGTARYASINTHLGIEQSRRDDLESLGYVLMYFNLGSLPWQGLKAATKRQKYERISEKKMSTPIEVLCKGYPSEFSTYLNFCRSLRFDDKPDYSYLRQLFRNLFHRQGFSYDYVFDWNMLKFGAARNPED
modifications: left off: small tags and cut ends
notes: truncated CKIε mutant where the C-terminus was deleted
[3]
  kinase activity of C-terminally truncated mutant: intact kinase activity
[3]; listed as C-terminally truncated CKIε
  kinase activity of C-terminally truncated mutant: has kinase activity
[4]
  activation of the Wnt pathway: fails to activate the Wnt pathway
[7]
  Axin binding: bound less Axin

B4: Wnt-1: Wnt-1 expressed from transfected plasmid (protein, UniProt P04628 28-370, looked up)
Proto-oncogene Wnt-1: ANSSGRWWGIVNVASSTNLLTDSKSLQLVLEPSLQLLSRKQRRLIRQNPGILHSVSGGLQSAVRECKWQFRNRRWNCPTAPGPHLFGKIVNRGCRETAFIFAITSAGVTHSVARSCSEGSIESCTCDYRRRGPGGPDWHWGGCSDNIDFGRLFGREFVDSGEKGRDLRFLMNLHNNEAGRTTVFSEMRQECKCHGMSGSCTVRTCWMRLPTLRAVGDVLRDRFDGASRVLYGNRGSNRASRAELLRLEPEDPAHKPPSPHDLVYFEKSPNFCTYSGRLGTAGTAGRACNSSSPALDGCELLCCGRGHRTRTQRVTERCNCTFHWCCHVSCRNCTHTRVLHECL
[2]
  luciferase activity induced: 30 fold
[8]
  stimulation of Lef-1 reporter gene transcription over vector transfected cells: 4-6 fold
